# Data from paper PMC11338459, “Cryo-EM structures of the human band 3 transporter indicate a transport mechanism involving the coupled movement of chloride and bicarbonate ions” (PLOS Biology, 2024).
# B1: human band 3 anion transporter (natural protein, UniProt P02730 1-911, looked up)
# chain: MEELQDDYEDMMEENLEQEEYEDPDIPESQMEEPAAHDTEATATDYHTTSHPGTHKVYVELQELVMDEKNQELRWMEAARWVQLEENLGENGAWGRPHLSHLTFWSLLELRRVFTKGTVLLDLQETSLAGVANQLLDRFIFEDQIRPQDREELLRALLLKHSHAGELEALGGVKPAVLTRSGDPSQPLLPQHSSLETQLFCEQGDGGTEGHSPSGILEKIPPDSEATLVLVGRADFLEQPVLGFVRLQEAAELEAVELPVPIRFLFVLLGPEAPHIDYTQLGRAAATLMSERVFRIDAYMAQSRGELLHSLEGFLDCSLVLPPTDAPSEQALLSLVPVQRELLRRRYQSSPAKPDSSFYKGLDLNGGPDDPLQQTGQLFGGLVRDIRRRYPYYLSDITDAFSPQVLAAVIFIYFAALSPAITFGGLLGEKTRNQMGVSELLISTAVQGILFALLGAQPLLVVGFSGPLLVFEEAFFSFCETNGLEYIVGRVWIGFWLILLVVLVVAFEGSFLVRFISRYTQEIFSFLISLIFIYETFSKLIKIFQDHPLQKTYNYNVLMVPKPQGPLPNTALLSLVLMAGTFFFAMMLRKFKNSSYFPGKLRRVIGDFGVPISILIMVLVDFFIQDTYTQKLSVPDGFKVSNSSARGWVIHPLGLRSEFPIWMMFASALPALLVFILIFLESQITTLIVSKPERKMVKGSGFHLDLLLVVGMGGVAALFGMPWLSATTVRSVTHANALTVMGKASTPGAAAQIQEVKEQRISGLLVAVLVGLSILMEPILSRIPLAVLFGIFLYMGVTSLSGIQLFDRILLLFKPPKYHPDVPYVKRVKTWRMHLFTGIQIICLAVLWVVKSTPASLALPFVLILTVPLRRVLLPLIFRNVELQCLDADDAKATFDEEEGRDEYDEVAMPV
# modifications: N-linked N-acetylglucosamine (NAG) at N642
# notes: band 3 anion transporter (AE1), human erythrocyte form of 911 amino acids, encoded by SLC4A1; endogenous protein from ghost membranes; the model of each subunit holds residues 372-888 except 743-751; Native protein from a crude membrane extract, identified from the cryo-EM maps (Build and Retrieve, Model Angelo); PC and PIP2 lipids lie at the subunit interface; also called band 3 transporter; …
# Target: the molecule itself
# Assay: cryo-EM structure; detergent-solubilized raw ghost membrane of human RBC reconstituted into MSP1E3D1 nanodiscs (POPC:POPE:POPG), enriched on Superose 6 in 20 mM Tris-HCl pH 7.5, 100 mM NaCl; Build and Retrieve processing; OF-IF and IF-IF dimers
protein,measurement,value
B1,stoichiometry N,2
